From patent publication US20170224816A1

Target: CD81 (UniProt P60033)
Experiment: cell-based or functional assay

Sequence of UniProt P60033 (P60033 whole entry): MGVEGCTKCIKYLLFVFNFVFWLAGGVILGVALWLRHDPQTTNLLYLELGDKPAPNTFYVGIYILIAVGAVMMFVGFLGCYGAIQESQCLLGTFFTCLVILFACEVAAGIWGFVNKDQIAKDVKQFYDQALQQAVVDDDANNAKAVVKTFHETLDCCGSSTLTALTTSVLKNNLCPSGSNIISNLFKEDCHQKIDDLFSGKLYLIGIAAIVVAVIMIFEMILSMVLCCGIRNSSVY

Q: Which degradation of total CD81, Western blot of HepG2 cells does the source give for “PCSK9 (proprotein convertase subtilisin/kexin type 9) (from UniProt Q8NBP7 31-692) (enzyme)” here?
A: 25%
